1 substance from publication PMC10277282 can be followed below.

This test deals with MHC II (mouse (endogenous in BMDM)) (UniProt P14434).
UniProt P14434, sequence (P14434 24-256, chain 1 of 2): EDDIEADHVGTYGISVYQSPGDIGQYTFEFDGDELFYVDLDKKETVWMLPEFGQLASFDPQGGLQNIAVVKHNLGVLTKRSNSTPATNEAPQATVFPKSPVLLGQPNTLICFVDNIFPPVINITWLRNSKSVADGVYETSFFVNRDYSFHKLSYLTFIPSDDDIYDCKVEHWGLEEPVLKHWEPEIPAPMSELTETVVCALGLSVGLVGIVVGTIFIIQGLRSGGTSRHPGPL
UniProt P14434, sequence (P14483 28-265, chain 2 of 2, further chain): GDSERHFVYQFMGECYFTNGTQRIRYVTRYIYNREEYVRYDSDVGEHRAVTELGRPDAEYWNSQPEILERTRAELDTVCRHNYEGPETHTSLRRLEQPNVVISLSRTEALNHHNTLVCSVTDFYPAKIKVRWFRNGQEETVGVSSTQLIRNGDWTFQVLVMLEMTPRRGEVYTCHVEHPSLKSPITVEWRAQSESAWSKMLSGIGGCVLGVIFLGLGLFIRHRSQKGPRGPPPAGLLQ

Take “soluble CD4 (ectodomain of CD4, D1-D4 domains) (from UniProt P06332 27-394) (domain or fragment)”: the TLR4 hyperinflammation in vivo (LPS sepsis in mice); concentration of sCD4 needed for 50% inhibition is 125 nM and the TNF/IL-6 response of macrophages to LPS in vitro; concentration of sCD4 needed for 50% inhibition of TLR4 hyperinflammation is 25 nM.
